Publication PMC7418779

Molecular target: human platelet actin (non-muscle actin), used as monomeric ATP-G-actin or as pre-formed F-actin (human) (UniProt P60709)
Assay: co-sedimentation

Kd | percent remaining in supernatant (not pelleted with F-actin) | Substance
21.9 nM | – | FLAG-tagged SHTN1L lacking CCD-I (1L-ΔCCD-I), purified (domain or fragment)
164 nM | 50% | FLAG-tagged SHTN1L, full length, purified (from UniProt Q8K2Q9 1-631) (natural protein)
